Assay results published in patent US8563685B2, “Fatty acid formulations and oral delivery of proteins and peptides, and uses thereof” (priority 2004, dated 2013).

How the values were obtained:
chymotrypsin [1] = assay: In vitro enzyme (chymotrypsin) resistance, HIM2 and Zn HIM2 complexes; format: in vitro ADME; details: 37° C., 0.3 mg/mL protein
Protocol: (§1) This sample serves as T=0. […] The half life was calculated using the equation: t1/2:=−0.693/slope.

chymotrypsin [2] = assay: In vitro enzyme (chymotrypsin) resistance, IN105 and Zn IN105 complexes; format: in vitro ADME; details: 37° C., 0.6 mg/ml protein
Protocol: as §1

## HIM2 (R-type zinc complex): R-type Zn complex of HIM2, 1.1% w/w zinc, 0.1 to 0.25% w/w phenol
Chymotrypsin [1]
  T half: 19 to 21 min

## IN105 (R-type zinc complex): R-type Zn complex of IN105, 1.85% w/w zinc, 2.37% w/w phenol (as reaction 9.6.1)
Chymotrypsin [2]
  T half: 55.3 min
